From patent EP2986720B1, “URICASE MUTANTS” (Council of Scientific & Industrial Research, priority 2013, dated 2014) come the findings set out here.

Common to all, as to test: Enzyme kinetic study of uricase (4-AAP/phenol/HRP colour assay, 505 nm)
In data set [1] the target is T1, Kluyveromyces lactis uricase variant KI T62S, Mutant 1 (SEQ ID NO.2) (Kluyveromyces lactis, UniProt Q6CNP7, T62S).
T1 sequence (Q6CNP7 1-308 T62S): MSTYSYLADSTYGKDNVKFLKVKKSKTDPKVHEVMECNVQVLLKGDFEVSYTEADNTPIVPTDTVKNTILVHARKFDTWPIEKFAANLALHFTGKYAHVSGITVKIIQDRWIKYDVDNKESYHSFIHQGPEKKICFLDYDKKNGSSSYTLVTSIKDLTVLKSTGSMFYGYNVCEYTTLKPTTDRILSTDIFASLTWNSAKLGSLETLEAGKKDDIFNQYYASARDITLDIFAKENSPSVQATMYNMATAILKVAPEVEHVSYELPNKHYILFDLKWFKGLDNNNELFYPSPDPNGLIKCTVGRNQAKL
The class given is biochemical. Conditions: substrate uric acid; pH 7.0, 35°C; Table 5. As to the method:
(§1) Enzymatic assay of uricase: Substrate mixture contains • a. 2.2 ml of 2 mM Uric acid • b. 0.15 ml of 60 mM 4-Aminoantipyrine (4-AAP) • c. 0.15 ml of 1.5% Phenol • d. 0.15 ml of 20 U/ml Horseradish peroxidase (HRP) • e. 0.1 M respective buffer to make up to 3 ml • a. Uricase added to the above mixture and incubated at 25°C for 20 min. The colour is measured at 505 nm (Chen, Wang et al. 2008). • b. The reaction mix was set for 300 µl rather than 3 ml for convenient measuring in BiotekPowerwave X Elisa plate reader. The amounts of the solutions added in the assay mix were calculated accordingly for 300 µl.
(§2) The kinetics of the uricases was studied to evaluate the efficiency of the enzymes. The kinetic parameters of the uricases of all the species were determined at their respective optimum pH and optimum temperatures. The substrate (uric acid) was added in increasing concentrations ranging from 10 to 600 µM (10, 20, 40, 80, 100, 200, 300, 400, 500, and 600) in triplicates. The assay reagents for the kinetic studies were added in 96 well plates in triplicates in the buffer of pH 7.0 and incubated at 35°C. Equal amounts of enzyme were added and immediately readings were taken at 505 nm. Around 30 readings were taken at the interval of 1min. The readings at a particular time point were taken for further steady state kinetic study of uricases. The KM and Vmax values were determined from Michaelis-Menten saturation curve by the non-linear curve fit (ORIGIN 7.5). kcat and kcat/KM values were also calculated (table 5). Table 5: Kinetic properties of the uricases of this invention

The target in data set [2] is T2, Kluyveromyces lactis uricase KlUOX (wild type) (SEQ ID NO.1) (Kluyveromyces lactis, UniProt Q6CNP7).
T2 sequence (Q6CNP7 1-308): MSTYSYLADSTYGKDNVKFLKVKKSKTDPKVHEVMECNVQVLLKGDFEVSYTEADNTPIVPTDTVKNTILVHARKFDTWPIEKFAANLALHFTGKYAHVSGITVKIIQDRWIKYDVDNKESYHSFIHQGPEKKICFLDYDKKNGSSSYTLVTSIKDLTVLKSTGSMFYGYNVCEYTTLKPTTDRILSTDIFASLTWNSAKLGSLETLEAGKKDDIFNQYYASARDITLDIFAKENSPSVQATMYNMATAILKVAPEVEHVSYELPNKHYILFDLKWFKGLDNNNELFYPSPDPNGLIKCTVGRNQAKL
The class given is biochemical. Conditions: substrate uric acid; pH 7.0, 35°C; Table 5. The method, then: as §1, §2

For data set [3], the target named is T3, Kluyveromyces lactis uricase variant KI F167W, Mutant 2 (SEQ ID NO.3) (Kluyveromyces lactis, UniProt Q6CNP7, F167W).
T3 sequence (Q6CNP7 1-308 F167W): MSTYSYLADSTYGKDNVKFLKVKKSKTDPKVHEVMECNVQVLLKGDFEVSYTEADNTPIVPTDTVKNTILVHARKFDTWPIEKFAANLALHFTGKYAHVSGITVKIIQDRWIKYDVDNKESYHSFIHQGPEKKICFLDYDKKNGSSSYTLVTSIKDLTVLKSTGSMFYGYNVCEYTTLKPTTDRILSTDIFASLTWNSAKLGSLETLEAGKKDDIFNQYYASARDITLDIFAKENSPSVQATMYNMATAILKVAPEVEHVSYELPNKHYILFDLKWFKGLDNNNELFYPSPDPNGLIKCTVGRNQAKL
The class given is biochemical. Conditions: substrate uric acid; pH 7.0, 35°C; Table 5. The method, then:
as §1, §2

The subject of data set [4] is O=c1[nH]c(=O)c2[nH]c(=O)[nH]c2[nH]1. The class given is biochemical, Aspergillus flavus. Conditions: other: substrate uric acid 10 to 600 µM; respective optimum pH and temperature; Table 1; pH 7.0. The method, then:
as §1, §2

Data set [5] has the same test system. The class given is biochemical, Kluyveromyces lactis. Conditions: other: substrate uric acid 10 to 600 µM, pH 7.0, 35°C, Table 1. As to the method:
as §1, §2

Substrate in data set [6]: O=c1[nH]c(=O)c2[nH]c(=O)[nH]c2[nH]1
It is filed as biochemical, Kluyveromyces lactis. Conditions: other: substrate uric acid 10 to 600 µM, pH 7.0, 35°C, Table 1. The method, then:
as §1, §2
The source holds these as a separate data set.

Substrate in data set [7]: O=c1[nH]c(=O)c2[nH]c(=O)[nH]c2[nH]1
The class given is biochemical, Candida utilis. Conditions: other: substrate uric acid 10 to 600 µM; respective optimum pH and temperature; Table 1; pH 7.0. The method, then: as §1, §2

Substrate in data set [8]: O=c1[nH]c(=O)c2[nH]c(=O)[nH]c2[nH]1
It is filed as biochemical, A. globiformis. Conditions: other: substrate uric acid 10 to 600 µM; respective optimum pH and temperature; Table 1; pH 7.0. As to the method:
as §1, §2

Turning to `O=c1[nH]c(=O)c2[nH]c(=O)[nH]c2[nH]1` [uric acid], the Kcat amounted to 0.2387 s⁻¹ in data set [1], 0.2027 s⁻¹ in data set [2] and 0.242 s⁻¹ in data set [3].

As for A. flavus uricase (Aspergillus flavus), in data set [4], the Km (as a rule, the substrate concentration at which the rate is half of its maximum) was determined as 96.2 µM; the kcat (in general, the maximal rate divided by the concentration of active sites) came out at 0.0717 s⁻¹; the kcat/Km – broadly, the second-order rate constant that governs catalysis at low substrate concentration – was 733 M⁻¹ s⁻¹.

Turning to “Kluyveromyces lactis uricase variant KI F167W, Mutant 2 (SEQ ID NO.3) (Kluyveromyces lactis NRRL Y-1140; F167W)”, in data set [5], the Km is 28.07 µM, the kcat was determined as 0.242 s⁻¹ and the kcat/Km came out at 8600 M⁻¹ s⁻¹.

Turning to “Kluyveromyces lactis uricase variant KI T62S, Mutant 1 (SEQ ID NO.2) (Kluyveromyces lactis NRRL Y-1140; T62S)”, in data set [5], the Km is 16.2 µM, the kcat turned out to be 0.2387 s⁻¹ and the kcat/Km worked out at 14700 M⁻¹ s⁻¹.

B1: Kluyveromyces lactis uricase KlUOX (wild type) (SEQ ID NO.1) (Kluyveromyces lactis NRRL Y-1140) (protein)
chain: MSTYSYLADSTYGKDNVKFLKVKKSKTDPKVHEVMECNVQVLLKGDFEVSYTEADNTPIVPTDTVKNTILVHARKFDTWPIEKFAANLALHFTGKYAHVSGITVKIIQDRWIKYDVDNKESYHSFIHQGPEKKICFLDYDKKNGSSSYTLVTSIKDLTVLKSTGSMFYGYNVCEYTTLKPTTDRILSTDIFASLTWNSAKLGSLETLEAGKKDDIFNQYYASARDITLDIFAKENSPSVQATMYNMATAILKVAPEVEHVSYELPNKHYILFDLKWFKGLDNNNELFYPSPDPNGLIKCTVGRNQAKL
In the case of B1, in data set [6], the Km was determined as 40.8 µM, the kcat was 0.2027 s⁻¹ and the kcat/Km stood at 4830 M⁻¹ s⁻¹.

B2: C. utilis uricase (Williopsis jadinii) (protein)
chain: MSTTLSSSTYGKDNVKFLKVKKDPQNPKKQEVMEATVTCLLEGGFDTSYTEADNSSIVPTDTVKNTILVLAKTTEIWPIERFAAKLATHFVEKYSHVSGVSVKIVQDRWVKYAVDGKPHDHSFIHEGGEKRITDLYYKRSGDYKLSSAIKDLTVLKSTGSMFYGYNKCDFTTLQPTTDRILSTDVDATWVWDNKKIGSVYDIAKAADKGIFDNVYNQAREITLTTFALENSPSVQATMFNMATQILEKACSVYSVSYALPNKHYFLIDLKWKGLENDNELFYPSPHPNGLIKCTVVRKEKTKL
In the case of B2, in data set [7], the Km is 38.5 ± 5.16 µM, the kcat is 0.2027 s⁻¹ and the kcat/Km worked out at 5250 M⁻¹ s⁻¹.

B3: A. globiformis uricase (Arthrobacter globiformis) (protein)
chain: MTATAETSTGTKVVLGQNQYGKAEVRLVKVTRNTARHEIQDLNVTSQLRGDFEAAHTAGDNAHVVATDTQKNTVYAFARDGFATTEEFLLRLGKHFTEGFDWVTGGRWAAQQFFWDRINDHDHAFSRNKSEVRTAVLEISGSEQAIVAGIEGLTVLKSTGSEFHGFPRDKYTTLQETTDRILATDVSARWRYNTVEVDFDAVYASVRGLLLKAFAETHSLALQQTMYEMGRAVIETHPEIDEIKMSLPNKHHFLVDLQPFGQDNPNEVFYAADRPYGLIEATIQREGSRADHPIWSNIAGFC
For the molecule B3, in data set [8], the Km was 215 ± 2.16 µM, the kcat worked out at 0.0145 s⁻¹ and the kcat/Km was found to be 67 M⁻¹ s⁻¹.
